Consider 1 molecule from article PMC7860981, “Mitochondrial Enzymes of the Urea Cycle Cluster at the Inner Mitochondrial Membrane” (Frontiers in Physiology, 2020).

For the assay, the target named is T1, carbamylphosphate synthetase 1 (CPS1), endogenous in mouse liver mitochondria (mouse (endogenous in mouse liver …, UniProt Q8C196 39-1500)).
T1 construct: carbamylphosphate synthetase 1, mouse, endogenous in liver mitochondria; also called CPSI; source: endogenous, mouse liver mitochondria, lysate (PBS with 2% CHAPS)
T1 sequence (looked up): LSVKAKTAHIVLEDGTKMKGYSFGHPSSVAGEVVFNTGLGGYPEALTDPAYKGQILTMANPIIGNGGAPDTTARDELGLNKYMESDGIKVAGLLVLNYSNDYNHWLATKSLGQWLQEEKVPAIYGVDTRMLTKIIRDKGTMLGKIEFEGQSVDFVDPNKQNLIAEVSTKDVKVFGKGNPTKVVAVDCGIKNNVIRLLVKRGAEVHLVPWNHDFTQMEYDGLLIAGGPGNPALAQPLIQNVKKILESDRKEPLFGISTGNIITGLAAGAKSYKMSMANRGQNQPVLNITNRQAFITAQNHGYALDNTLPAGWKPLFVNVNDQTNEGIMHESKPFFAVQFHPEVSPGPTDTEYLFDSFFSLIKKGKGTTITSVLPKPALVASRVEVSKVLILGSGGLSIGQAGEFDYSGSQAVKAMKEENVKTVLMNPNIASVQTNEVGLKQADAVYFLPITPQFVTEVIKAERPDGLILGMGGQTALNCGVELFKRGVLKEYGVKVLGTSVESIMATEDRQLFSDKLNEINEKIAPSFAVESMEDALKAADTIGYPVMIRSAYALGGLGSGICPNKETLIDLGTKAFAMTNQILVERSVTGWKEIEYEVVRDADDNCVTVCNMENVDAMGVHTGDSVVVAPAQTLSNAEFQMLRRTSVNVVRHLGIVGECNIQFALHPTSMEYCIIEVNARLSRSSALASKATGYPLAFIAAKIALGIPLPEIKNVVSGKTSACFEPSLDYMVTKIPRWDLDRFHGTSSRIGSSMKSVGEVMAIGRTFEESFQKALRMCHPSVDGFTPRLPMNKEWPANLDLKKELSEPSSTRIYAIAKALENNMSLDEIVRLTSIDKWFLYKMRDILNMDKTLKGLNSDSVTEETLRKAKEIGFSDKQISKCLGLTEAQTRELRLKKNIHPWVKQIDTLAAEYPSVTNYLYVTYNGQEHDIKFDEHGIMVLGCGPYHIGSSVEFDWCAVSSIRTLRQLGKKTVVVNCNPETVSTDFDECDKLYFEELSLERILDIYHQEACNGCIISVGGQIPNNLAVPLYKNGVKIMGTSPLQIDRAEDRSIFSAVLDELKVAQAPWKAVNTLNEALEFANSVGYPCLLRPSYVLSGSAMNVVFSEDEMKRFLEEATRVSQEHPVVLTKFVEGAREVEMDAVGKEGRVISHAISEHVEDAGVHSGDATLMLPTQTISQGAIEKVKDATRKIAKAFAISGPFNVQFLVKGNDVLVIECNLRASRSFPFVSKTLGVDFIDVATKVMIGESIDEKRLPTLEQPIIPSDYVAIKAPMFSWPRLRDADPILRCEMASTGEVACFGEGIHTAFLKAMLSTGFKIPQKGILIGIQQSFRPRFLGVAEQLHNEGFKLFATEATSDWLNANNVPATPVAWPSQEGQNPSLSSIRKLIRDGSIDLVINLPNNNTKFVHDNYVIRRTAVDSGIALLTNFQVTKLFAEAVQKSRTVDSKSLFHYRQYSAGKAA
In words: co-IP; competition experiment: purified recombinant mVS (10 to 30-fold molar excess over CPS1) mixed 1:1 (v/v) with mitochondrial lysate (2 mg/ml protein), added to magnetic beads cross-linked to anti-CPS1 antibodies; immunoblot for NAGS, densitometry of NAGS-M bands. The conditions noted are these: one partner purified. In general terms: In western blotting, separated proteins are transferred to a membrane and probed.

B1: recombinant mouse variable segment (mVS) of NAGS (domain or fragment, UniProt Q8R4H7 49-117, looked up)
chain: LSTARAHAEDAEGAKGRVQSPAVEEPSWTPLPTPLESPAPPAGRSLVQRDIQAFLNQCGASPGEARHWL
notes: Predicted molecular weight 9.675 kDa as printed
In the case of B1, the “fold decrease of mNAGS co-immunoprecipitated with CPS1 in the presence of mVS” value came out at 5 fold.
